Results: the supplement of paper PMC10724198
± gives the standard deviation of the averaged measurements.

test system: Saccharomyces cerevisiae; test: protein stability index of tFT-peptide fusion (C-terminal peptide) (PSI (0-1 scale)); higher = more stable (slower turnover); conditions: genetic background: wild type; temperature: 30 C
Protocol: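 Multiplexed protein stability (MPS) profiling in S. cerevisiae. Random 12-aa peptides (tFT-X12 library) are fused to the C-terminus of a sfGFP-mCherry tandem fluorescent timer, after mCherry and a GGGS linker. Cells are FACS-sorted into 8 mCherry/sfGFP bins and deep-sequenced. The protein stability index (PSI) is the read-weighted bin average, scaled from 0 (unstable) to 1 (stable). Only peptides with >10 reads are reported; cells were grown at 30 °C in SC-His with glucose.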
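Also: PSI is a weighted mean of sequencing reads over stability bins, variants kept only with over 10 reads, mCherry proximal and sfGFP distal, peptide attached via GGGS linker.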

Row | Sequence | protein stability index
1 | VLGGSMWLDLVC | 0.781 ± 0.23
2 | SWKFAFWCFLGR | 0.5675 ± 0.0056
3 | CVGLGGPPGGCG | 0.603 ± 0.091
4 | FLVEPSGRSATW | 0.741 ± 0.16
5 | QKKKQTDHTNGV | 0.684 ± 0.03
6 | IRPSGVVPPRAG | 0.65 ± 0.048
7 | CLCRAAGARRCG | 0.694 ± 0.03
8 | GIPCRCVCLNQW | 0.6961 ± 0.0017
9 | GGSGLRCCREMG | 0.681 ± 0.022
10 | RLEGNRGPWRQD | 0.786 ± 0.1
11 | AVRVLLISSSGT | 0.641 ± 0.031
12 | RVEELKFKNLII | 0.6633 ± 0.004
13 | KMSEERIGIEKN | 0.7038 ± 0.0029
14 | PSRSLSSPPSSR | 0.64 ± 0.019
15 | AGGLHRSRPCVD | 0.709 ± 0.024
16 | ENQGQSYVTMRY | 0.725 ± 0.046
17 | PLPPPRPLPTPL | 0.69 ± 0.055
18 | ATSPTPALPPLL | 0.743 ± 0.14
19 | WGRAGPSSPCSC | 0.709 ± 0.088
20 | MSRRHDQESIHV | 0.673 ± 0.021
21 | PVAVSQPNGPKD | 0.633 ± 0.031
22 | RRKEEEGKEVRK | 0.666 ± 0.01
23 | PHPHLPPARSPP | 0.675 ± 0.019
24 | TSGHSCGRGLLD | 0.64 ± 0.012
25 | FRKTDYMVHNGI | 0.664 ± 0.015

Row | Sequence | protein stability index
26 | CSGFPPPPHSSL | 0.6812 ± 0.00089
27 | WRGRCGPVLGFC | 0.659 ± 0.027
28 | VVLGGFAVGLGF | 0.708 ± 0.021
29 | VSAFLPLFLLTP | 0.601 ± 0.055
30 | GCWGEWGWVGRG | 0.696 ± 0.035
31 | PAQDCAATGVRR | 0.672 ± 0.037
32 | PPSNPLTRAQCL | 0.737 ± 0.14
33 | RFGGVWRCRGFV | 0.696 ± 0.031
34 | LYLRNFGSPFLV | 0.65 ± 0.024
35 | PWWSRPAASVGV | 0.659 ± 0.047
36 | YARLAWDFRRSP | 0.737 ± 0.019
37 | SSWRVPLSVLPI | 0.67 ± 0.014
38 | EYRTAIYFQSLL | 0.701 ± 0.076
39 | VQTIKPVPSGLR | 0.622 ± 0.078
40 | TLSSSPRPLPVP | 0.692 ± 0.051
41 | PTPSDRLPPPSH | 0.712 ± 0.0098
42 | GQPLLVCMSGFW | 0.684 ± 0.01
43 | EALKCFADAYTC | 0.661 ± 0.063
44 | RKIKKRITREKM | 0.617 ± 0.082
45 | PLSRVEGRVPAI | 0.6663 ± 0.0039
46 | ALSGSFVSWLGG | 0.689 ± 0.061
47 | FLGAELRRLGSL | 0.703 ± 0.071
48 | FVLPSPRPPSMT | 0.704 ± 0.0078
49 | SGASFLKVGLSV | 0.6812 ± 0.0032
50 | LPRELFSQQRFL | 0.713 ± 0.0097

Row | Sequence | protein stability index
51 | YGCSLFCPDCSI | 0.794 ± 0.15
52 | GKRTVLFTRCRQ | 0.5888 ± 0.0055
53 | CLVSVDYFPPKL | 0.75 ± 0.16
54 | PTTAVNLPQGGT | 0.68 ± 0.063
55 | WPHGHVNTHRIG | 0.737 ± 0.038
56 | SPLGPLGPPSET | 0.693 ± 0.052
57 | PKVRAGYSYEVM | 0.673 ± 0.019
58 | PLYRPCPGSRRA | 0.745 ± 0.0097
59 | RWSVSLAVTVLL | 0.503 ± 0.011
60 | RLVHSRPPPFAS | 0.794 ± 0.13
61 | PPPPPHSSPFRS | 0.694 ± 0.01
62 | PTGRGRSAYLVL | 0.6875 ± 0.0058
63 | ITKTGAAEHASL | 0.63 ± 0.037
64 | ESASSLNFTSLM | 0.731 ± 0.053
65 | SPPAPACTSYSL | 0.7018 ± 0.0019
66 | VTIFAGIGQFWF | 0.706 ± 0.021
67 | APTPACTRPSVA | 0.693 ± 0.033
68 | NTSVSGTGVSSK | 0.762 ± 0.12
69 | VFCGGGRFRCSR | 0.651 ± 0.023
70 | AGGGNGGGGGEK | 0.663 ± 0.019
71 | FRICSLTLSLSI | 0.5517 ± 0.0048
72 | FPPPLPLSPPPP | 0.746 ± 0.085
73 | PPPPDPWTSPRP | 0.734 ± 0.027
74 | GGALLGGGAMGL | 0.643 ± 0.037
75 | TFVSPPPHPLRP | 0.636 ± 0.055

Row | Sequence | protein stability index
76 | PPPARLSLPPPD | 0.694 ± 0.007
77 | LGRCSTLLYCGP | 0.669 ± 0.03
78 | LPSCKVSLASLL | 0.6281 ± 0.0035
79 | KKKKKQKKKKGT | 0.713 ± 0.034
80 | SWGGELGATSGG | 0.708 ± 0.024
81 | FSRGRAVRVRRT | 0.728 ± 0.21
82 | AWVCSPSACGLV | 0.834 ± 0.089
83 | LPLRVPPPPSSH | 0.743 ± 0.085
84 | SDMTHRSCTLLC | 0.633 ± 0.028
85 | PPPPPPPPPLPR | 0.657 ± 0.039
86 | LMRFFSCTLSFE | 0.62535 ± 0.00026
87 | CVLSFVRGCLGA | 0.587 ± 0.067
88 | PSAGPVVLPTPP | 0.704 ± 0.013
89 | SRASPPCSLLSS | 0.696 ± 0.051
90 | GRFSHRCGGGVW | 0.622 ± 0.046
91 | HYRLPLPPASPA | 0.701 ± 0.052
92 | TCVASLSVLCLL | 0.574 ± 0.048
93 | PPPPRPSPSIYP | 0.732 ± 0.018
94 | RGELSGVRVSVR | 0.645 ± 0.043
95 | TLTVRASLHLEP | 0.636 ± 0.025
96 | PYRPYLLPGSLA | 0.632 ± 0.099
97 | GSSYDSEISRQS | 0.732 ± 0.0089
98 | PTNISEKVGAKS | 0.671 ± 0.02
